Target: human CD1a expressed on cells (human) (UniProt P06126)
Experiment: cell-based or functional assay

human CD1a expressed on cells (human), sequence (P06126 17-327): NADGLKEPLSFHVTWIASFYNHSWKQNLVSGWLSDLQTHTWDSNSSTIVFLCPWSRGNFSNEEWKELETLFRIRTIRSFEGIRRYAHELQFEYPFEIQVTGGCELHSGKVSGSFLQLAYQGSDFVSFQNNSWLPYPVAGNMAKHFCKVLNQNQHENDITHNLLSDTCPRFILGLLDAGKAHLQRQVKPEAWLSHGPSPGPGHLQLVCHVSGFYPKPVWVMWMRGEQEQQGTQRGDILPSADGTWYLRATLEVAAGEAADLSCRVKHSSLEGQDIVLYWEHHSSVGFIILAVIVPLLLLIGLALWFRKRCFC

| CD69 expression, IC50 [nM] | IL-2 secretion, IC50 [nM] | Substance |
| --- | --- | --- |
| > 100 | > 100 | Human IgG1 (EFN) isotype control (antibody) |
| 0.042 | 0.028 | OKT6-human IgG1 (EFN) (antibody) |
